Test results from the DeepSol protein solubility set.

assay: soluble on expression in E. coli; label from the status in PepcDB or PDB records

Sequence	soluble on expression in E. coli
MGSDKIHHHHHHMPLYLKNHSYGEYVFDWAWANAYERAGHDYYPKLLSAIPFSPVTGKRLLAQTSEQRALLVSTALAIVRKGNAGAGMSSLHCLFPLEHEAREMERAGMMLRCGVQFHWKNRPGRGYENFEDFLGGMSYSKRKKIRQERRKVQDLGIHFEWLSGNDMDEDRWNFFIDCYNNTYREHHSRPYLNLEFFLRLGKSMPENILLILALQNKKPIGVAFNIHNSHTLYGRYWGAREFVPGLHFETCYYQAIQYCIANGLSLFEGGAQGEHKLARGFLPVRTWSAHWLVHSEFAAAIEGYLERETRDIDRYIHALEESAPFRKDARESE	not soluble
MGSDKIHHHHHHMAIVNRIALDLAKDFIQVLALDENEQEVFNKKLRSNKVLAKLATLSRTDDCEVAVESCGMSHYWRRECEKLGYKTVALPPRFVKAYLQGEKNDANDARAIAEAASRPNRQTVRLKSIEQQDLALMVNQREGFVQTRTQFSNRLRGQLAEYGILLPKRVGTILQRVPEVLEDDSNALTLQSRDLINRLYQMLRAVDEEVKALDKHLATQAERNEDSQRLMTLPGIGPITATSLLALIGDVSEFKRGRNLSEYLGLVPRQNSSGGKDRLGGITKKGNTKLRTLLVHGARSALRVAQQRHDRLSLWAQDVAKRRGNNVAAVALANKHARIIWAMLKNKEDYRMTAA	not soluble
GVLPVEKCNLEDSACMTSAFQQALPTFVAGLPDHGVEVMDVLDLDDFAFDLSGLQFTLKEGKLKGLKGAVIDNVKWDLKKKNIEVDFHLDATVKGHYTAGGRILILPITGDGQMKLKLKNIHIHLVVSYEMEKDAEGVDHVIFKKYTVTFDVKDNAQFGLTNLFNGNKELSDTMLTFLNQNWKQVSEEFGKPVMEAAAKKIFKNIKHFLAKVPIAEIANV	soluble
MGSDKIHHHHHHMLLLEVKNVSKSYGDTEVLKNVSFELNEGDVMGVLGRSGAGKSVLLHMLRGMEGYEPTSGQIIYHVAYCPHCENVEAPSQVGKKCECETEYVAKSVDFWNNNEITYALKKKIAIMLQRTFALYGEKTVAENIMEALTAAGYEGKDATEWALNLIKMVKLEHRVAHISRDLSGGEKQRVVLARQIAKNPVIFLADEPTGTLDPKTAKFVHNALTEAVIKHNIAMVITSHWPEVIEELCQKAIWLDKGEMRLVGESKHVVEEFMKTVTSMKEFEKVEVKDELLKLENVEKRYVSVDRGIVKAVDGIDVSINEKEIFGLVGVSGAGKTTLSKIIAAVIPPSKGNYEFRLADEWVDMTKVGPLYRGRAKRYIGMLFQEYSLYPHRTILYNLTESIGLEMPGEFAKMKAEHTLVSVGFTEEEAENMLEKHPSELSVGEKHRVALAQVLIREPHLILLDEPTGTMDPITRNQVAESIQKSRSELDQTYVIVSHDMDFVLNVCDRAALVRGGKIIKTGKPDEIVKILSEEEKDEMIGH	not soluble
MGSDKIHHHHHHMKVFSERADKPHAYLFGEYTNPLGFDPVELALSEDGQAWQSIFDDPNLSNVYLVDFDWLPPVIADTYRTAGTRDGQQLANSRLDQRDIVLKFIAYCRGDADEKLTFQSLSNFLIRRHNYWVAFDNDGSRMYHVREKTITAEYYGDKMMMITVTLNNFTGVAQSIMPSAHINEMPNIGLGLPTDIVNYVFRTSEFDVNNIGELPVDPLVQGDYFDITLTGIGSPTIANTTTGDAITCTKSLTTGDTFKLIGVNPQINGQAAGINTDNGIIRLASGNNHFKITGCQDLNCTVNFYFKYLN	not soluble
MGSDKIHHHHHHMDQGDDGDGQTANADYSIRIAAGIGAFTCDEWNGFAGTTRSDAENGYNPLVSFAFLSALEDSGCAVRRTGWQGHHVRLETAQGRLLGAVPCYLKSHSQGEYVFDHGWSDAFERAGGRYYPKLQCAVPFTPVTGPRLLVNRGEDPDAVKAGLAAGLKMVTDKLGVSSAHVTFAQESDVATLEAAGFLHRTDQQFHFFNEGFSTYDDFLATLASRKRKAMKKERREALADGITIDWLTGKDLTEKAWDDFFAFYMDTGSRKWGRPYLNRQFFSLIGERMADDILLVMARRNGRYVAGAINFIGSDALYGRNWGCIEDHPFLHFEVCYHQAIDFAIERKLKVVEAGAQGEHKLARGYRPVTMHSAHYISHPGLRNAVADYLQRERREVERMGEYLEEHTPFRKDLEE	not soluble
PLEKTVRLHSSSGTTGNPTVILHTQKDLDEWANAVARCLYMVGLRPGDIFQNSSGYGMFTGGLGFQYGAERLGMLTVPAAAGNTKRQLKFISDFGTTALHAIPSYAARMYEIMQEMGIDPRRDTKLRTLIIGAEPHSEEQRRRIEDMLGVKAYNSFGMSEMCGPGVAFECQEQNGLHIW	not soluble
MGSDKIHHHHHHMFQNKKHRIALISIDGDPAVEIGQEEAGGQNVYVRQVGYALAQQGWQVDMFTRRSNSEQSAIAQHGPNCRTIRLKAGPAEFIGRDNLFDHLPEFIEEFQKFQQRQGFHYSLIHTNYWLSSWVGMELKKQQSLIQVHTYHSLGAVKYRSIGDVPVIAAQRLAVEKACLETIDCVVATSPQEQKHMRVLVSSKGNIEMIPCGTDTDKFGGIQRTAAREKLGIAPDAKIVLYVGRFDRRKGIETLVRAVAKSSLRGEANLQLVIGGGSRPGQSDAIERDRIASIVTELGLENCTTFAGRLDETVLPFYYAAADVCVVPSHYEPFGLVAIEAMASQTPVVASDVGGLQFTVVPEVTGLLAPPKDEVAFAAAIDRILINPTWRDQLGEAARQRTEIAFSWYSVGFRLTQLYTRLLAQTASNTRPRIAA	not soluble
MGDGVLELVVRGMTCASCVHKIESSLTKHRGILYCSVALATNKAHIKYDPEIIGPRDIIHTIESLGFEASLVKIE	soluble
MSLKRYRTLLFDVDDTILDFQAAEALALRLLFEDQNIPLTNDMKAQYKTINQGLWRAFEEGKMTRDEVVNTRFSALLKEYGYEADGALLEQKYRRFLEEGHQLIDGAFDLISNLQQQFDLYIVTNGVSHTQYKRLRDSGLFPFFKDIFVSEDTGFQKPMKEYFNYVFERIPQFSAEHTLIIGDSLTADIKGGQLAGLDTCWMNPDMKPNVPEIIPTYEIRKLEELYHILNIENTVSEGHHHHHH	soluble
GSDSAITLWQFLLQLLQKPQNKHMICWTSNDGQFKLLQAEEVARLWGIRKNKPNMNYDKLSRALRYYYVKNIIKKVNGQKFVYKFVSYPEILNMDPMTVGRIEGDCESLNFSEVSSSSKDVENGGKDKPPQPGAKTSSRNDYIHSGLYSSFTLNSLN	soluble
MTIEDLQAFMKREFPQLGEAFEIVTVDEGSATMRLHADAQHLRPGGTVSGPSLFALADVAAYAAILAHIGPVALAVTTNLNINFLRKPSPGTVEAVAHLLKLGKRLAVLDISLTDGANGELVAHATATYSIPPRLEHHHHHH	soluble
MSPKSVVITGANRGIGLGLVQEFVKDKNIRHIIATARDVEKATDLKAISDPRVTALQLEVTCDKSMDTFVSKVEEIVGSDGLNLLVNNAGNAVDYPCKAKPNRALFAEQLNVNTTSVVILTQKLMPLLIKASSKVSGDQLSASRAAVVTISSGLASMTDFATGGHAPNAFAYRISKAAINMFGRALANDMKDDHILVASIGPGWVKTDMGGEKALLTVEQSTAELVASFNKLNNSHNGGFFQKDLTPYPF	not soluble
MSLFHREDFSKALLKKALQPGMRVMDIGCGSGELTRLAADIVGKEGDVVGIDINEQLLWQARHDNGYANVSYQNADLAALSSFETKSFDAIIGRRVLMYQKDPKKVIESLTPLLKPNGFYVFQESDAMCLELAKPSFVNMNKIQSLIWQTVEKEGGHIHIGSQLEQLMLEAGLIVDHFVSENVIQTSQTGTDLSWLLNIMKERIQKYSDLQGLEDVNLQKELEENNDHFIRDCQFGIISHRVDEGHHHHHH	soluble
SADHDLFRETVYAESLDEALERYSVDTVGDSELATLLPHIEKTFGFPTWAQINEALDTYPDREFVNTVTELLSTANPESLVAAVELMVASARSTTLREELDHEVVLGEYIRSRPNFAEGVRAVLVDKDRNADFTPATTGEVDVTPMRKLLKN	not soluble
MGSDKIHHHHHHMDLSSNRLAGKSILITRPLHQAGGLATWVRELGGEPWLFPVLEISDSENKQPLLDLIARLDEFDLAVFVSPNAVEKVIPLVQVSHSWPRHVLVATVGKGSARVLERYGITNVIVPEEGSDSEALLRMPQFQVMQGRHVVIFRGNDGRRLLGDTLRERGASVEYIECYRRHKPEADPLPLLKHWRDDGIQAVIISSSEGLDNLFDMIGETGQQLLKATPVFTAHERIERKARELGIRKIYRTLLGDEGTVQGLLEYFEKM	not soluble
AQAFVNSKIQPGKVVVFIKPTCPFCRKTQELLSQLPFKEGLLEFVDITATSDTNEIQDYLQQLTGARTVPRVFIGKECIGGCTDLESMHKRGELLTRLQQVGAVK	soluble
MMISLYSAATGMSAQQFKLDTIANNLANVDTTGYKKVRAEFQDLLYQYVKNAGTPTAATSSLPTGLYVGHGVRTAATTRIFTLGNFEQTGNALDLAIAGDGFFQIQLQDGRIAYTRDGSFKMDSEGRIVTSNGLLLVPEITIPENAVSINVSPDGIVSAELQDGTIQELGTITLVRFVNPSGLKSIGDNLYIATPASGDPIEGVPGQDGFGAIKQGFLEKSNVDVVREMVDMITAQRAYEFNSRVIQTADEMLRTATNVKR	soluble
MAKKNNKTKIQKPEAALQTDVAQITATGRVIAEHPSNFITPQKMRALFEDAESGDIRAQHELFADIEERDSDIAANMGTRKRALLTLNWRVAPPRNATPEEEKLSDQAYEMMDSLPTLEDLIMDLMDAVGHGFSALEVEWVFSDGLYLPRNFIHRPQSWFKWDKDNGLLLRTRENPEGEALWPLGWVVHTQKSRSVQQARNGLFRTLSWLYMFKHYAVHDFAEFLELYGMPIRIGKYGAGATKEEKNTLLRAVAEIGHNAAGIMPEGMEIELHNAANGTTATSNPFLQMADWCEKSAARLILGQTLTSGADGKSSTNALGNIHNEVRRDLLVSDAKQVAQTITSQIIGPFLQINYPHADPNRVPKFEFDTREPKDIAVFADAIPKLVDVGVQIPESWVRDKLVIPDVQEGEAVLVRQVPDNPVNRTALAALSAHTVPSKATGRHQEILDGALDDALVEPDFNSQLNPMVRQAVAALNACNSYEEADAALNALYPNLDNAKLRTYMQQALFISDILGQDHARA	not soluble
MTKEEIIKPENLVYKKPTLMNDNPMHYCPGCSHGVVHKLIAEVIEEMGMEDKAIGVSPVGCAVFAYNYLDIDWQEAAHGRAPAVATAIKRLWPGRLVFTYQGDGDLACIGTAETIHALNRGENITIIFINNAIYGMTGGQMAPTTLVGMKTATCPYGRDVAIHGYPLKMTEIAATLEGTAYVTRQAVHTVPAIRKAKKAIRKAFENSMNGKGSNLVEIVSTCNSGWKMTPQASNDWMVEHMFPFYPLGDLKDKE	not soluble
MAHHHHHHMPYIASIDQGTTSSRCIIFDEKFTILSAHQLFHKQITPRPGWLEHDPEEIYSNCCLCLAEALKKLRSKDPKFEKVSAIGITNQRETGVAWDRKTGKPLCNAIVWSDARTYEVSNRIAKECGGGDRNFAANITGLPVSTYFTAFKFRWMLENVPAVAAARKSGSLLLGTIETWLLWKLSEGKVFLTDVSNASRTFLMNLRTQQWCDKLCQELDIPLAALPEIRSNSERYCDVVANDHGIRDALGVPTPVTGCIGDQQSALFGHIGLHKGDAKNTYGTGCFMLMNVGTEPQFSKHGLLGTIAYKLGTEPTKFALEGSVAGAGATVEWMRSNLGFFDHPMQMESIARKVGGTDGVVFVPAFGGLLAPYWDPTARGTLVGMTYKTNKSHIIRAALEAISMQVNAVMLAMKEDSGVEMNCLRVDGGLTRSRLLMEMQADILGVNLYVPHLTETTALGAALCAGLAVGVWKSVEEMQKTAKEHLSGETVNPITTDEQVRKARLEAWNAAVKLSRWAKL	soluble
MGKRLKSNARKSAVNKLVKKTDNRIKEEQRVIRTPKVDEQELKLVRAPKISSAMFMKYNTQLGPPFHVIVDTNFVNFAVKNRIDMFQGFMDCLFAKTIVYATDCVLAELEKVRRFKIALKVLKDPRVQRLKCEHKGTYADDCLVQRVTQHKCYIVATCDRDLKRRIRKIPGVPIMYIVNHRFSIERMPDAYGAPMN	not soluble
